Measured values reported in paper PMC3670040, “Structure of Lipid Kinase p110β/p85β Elucidates an Unusual SH2-Domain-Mediated Inhibitory Mechanism” (Molecular Cell, 2011).
Like-named read-outs stand apart in the source and are kept apart here.

How the values were obtained:
p110β [1] = target: T1, p110β (Mus musculus, UniProt Q8BTI9); assay: Transcreener ADP formation (fluorescence polarization), diC8-PIP2/POPS liposomes, mouse p110β complexes; assay type: biochemical; settings: 10 μM PDGFR pY2; Figure 3A
T1 construct: Mouse His6-p110β(1-1064)/p85β-icSH2(423-722) complex; made in house; host or cells: Sf9 insect cells (baculovirus co-infection)
Procedure: (§1) Figure 1 Inhibition of p110β by p85-Type Regulatory Subunits and Activation of the Complexes by RTK Phosphopeptide (A) Domain organization of p110β and the regulatory subunits p85α, p85β, and p55γ. The color scheme for the domains is used for all figures, unless otherwise stated. […] The inhibition is released upon addition of the 10 μM PDGFR pY2. […] The y axis is expressed as a change in fluorescence polarization (ΔmP), which is obtained by subtracting the observed polarization for the construct at a given enzyme concentration from the maximum fluorescence polarization for that construct. The plateau in these assays arises due to the competitive nature of the ADP detection system, based on displacement of ADP-Alexa 633 tracer from the ADP^2-antibody by ADP generated during the PI3K assay (see Supplemental Experimental Procedures). All measurements were done in triplicates, and the error bars indicate the standard error of the mean (SEM). (C) Kinase activity of p110β/p85β complexes with monomeric substrate (75 μM diC8-PIP2) in the presence and absence of pY2; y axis as in (B). (D) Basal- and pY2-stimulated activities of 35 nM PI3K complexes in the absence of lipids (ATP hydrolysis). Activities are given as percent of ATP converted to ADP using the Transcreener assay. Bars indicate SEM. TEXT PRINTED IN THE PICTURE: (B) p110β/nic: EC50 (nM): 15 | (B) p110β/nic+pY2: EC50 (nM): 0.14 | (B) p110β/ic: EC50 (nM): 1 | (B) p110β/ic+pY2: EC50 (nM): 0.21 | (B) p110β/ni: EC50 (nM): 0.84 | (B) p110β/ni+pY2: EC50 (nM): 0.24 | (B) p110β/i: EC50 (nM): 0.12 | (B) p110β/i+pY2: EC50 (nM): 0.14 | (B) ΔABD-p110β: EC50 (nM): 0.06 | (B) ΔABD-p110β+pY2: EC50 (nM): 0.05 | (C) p110β/nic: EC50 (nM): 24 | (C) p110β/nic+pY2: EC50 (nM): 3 | (C) p110β/ic: EC50 (nM): 5 | (C) p110β/ic+pY2: EC50 (nM): 2 | (C) p110β/ni: EC50 (nM): 4 | (C) p110β/ni+pY2: EC50 (nM): 2 […]
(§2) Figure 3 Mutation Y677A in p85β-cSH2 Releases Inhibitory Effect on p110β (A) Kinase activity (ADP formation) of p110β in a complex with p85β-icSH2-Y677A (Y677A-ic) compared to the wild-type complex (ic) in the absence and presence of 10 μM PDGFR pY2 (ADP formation on the y axis expressed as in Figure 1B). (B) Comparison of p110β activities of 1 nM complexes with wild-type or Y677 mutant nicSH2 or icSH2 (activity shown as in Figure 1D). TEXT PRINTED IN THE PICTURE: (A) p110β/ic: EC50 (nM): 1 | (A) p110β/ic+pY2: EC50 (nM): 0.15 | (A) p110β/ic-Y677A: EC50 (nM): 0.11 | (A) p110β/ic-Y677A+pY2: EC50 (nM): 0.08 […]
(§3) The lipid kinase activity was determined using the Transcreener ADP2 FP Assay (BellBrook Labs, Madison, WI) according to manufacturer‟s specifications. This non-radioactive assay measures activity by quantitating the amount of ADP formed. The ADP formed by PI3K competes with fluorescent ADP tracer for binding to an anti-ADP antibody, thereby decreasing fluorescence polarization. Because of the competitive nature of this assay, the change in fluorescence polarization signal is not a linear function of enzyme activity, and a convenient measure of enzyme activity is the EC50, or the concentration of enzyme necessary to give half-maximal inhibition of labeled ADP binding to the antibody, for a given concentration of substrate and a fixed time of reaction at initial rate. While activity of two different enzyme constructs can be compared at a fixed concentration of protein and a fixed concentration of substrate, the assay is most reliable when about 2%-10% of the ATP is […]
(§4) Consequently, the EC50 provides a convenient way to compare the activities of various constructs. Briefly, reactions were performed in 10 μl volume in 384-well black plates (Corning 3676) and they contained final 100 μM ATP, 75 μM lipids and a series of protein concentration varying from 0.001 nM to 2.5 μM. Serial dilutions of protein heterodimers were prepared in buffer F (50 mM Hepes pH 7.5, 100 mM NaCl, 0.03% CHAPS, 4 mM DTT) in 5 μl […]
volume. […]

p110β [2] = assay: as above; assay type: biochemical; settings: for EC50: Figure 3A, Y677A vs wild-type, diC8-PIP2/POPS, 100 μM ATP, 1 h, room temperature
Procedure: as §1, §2, §3, §4
volume. […]

T1 sequence (Q8BTI9 whole entry, one chain of several): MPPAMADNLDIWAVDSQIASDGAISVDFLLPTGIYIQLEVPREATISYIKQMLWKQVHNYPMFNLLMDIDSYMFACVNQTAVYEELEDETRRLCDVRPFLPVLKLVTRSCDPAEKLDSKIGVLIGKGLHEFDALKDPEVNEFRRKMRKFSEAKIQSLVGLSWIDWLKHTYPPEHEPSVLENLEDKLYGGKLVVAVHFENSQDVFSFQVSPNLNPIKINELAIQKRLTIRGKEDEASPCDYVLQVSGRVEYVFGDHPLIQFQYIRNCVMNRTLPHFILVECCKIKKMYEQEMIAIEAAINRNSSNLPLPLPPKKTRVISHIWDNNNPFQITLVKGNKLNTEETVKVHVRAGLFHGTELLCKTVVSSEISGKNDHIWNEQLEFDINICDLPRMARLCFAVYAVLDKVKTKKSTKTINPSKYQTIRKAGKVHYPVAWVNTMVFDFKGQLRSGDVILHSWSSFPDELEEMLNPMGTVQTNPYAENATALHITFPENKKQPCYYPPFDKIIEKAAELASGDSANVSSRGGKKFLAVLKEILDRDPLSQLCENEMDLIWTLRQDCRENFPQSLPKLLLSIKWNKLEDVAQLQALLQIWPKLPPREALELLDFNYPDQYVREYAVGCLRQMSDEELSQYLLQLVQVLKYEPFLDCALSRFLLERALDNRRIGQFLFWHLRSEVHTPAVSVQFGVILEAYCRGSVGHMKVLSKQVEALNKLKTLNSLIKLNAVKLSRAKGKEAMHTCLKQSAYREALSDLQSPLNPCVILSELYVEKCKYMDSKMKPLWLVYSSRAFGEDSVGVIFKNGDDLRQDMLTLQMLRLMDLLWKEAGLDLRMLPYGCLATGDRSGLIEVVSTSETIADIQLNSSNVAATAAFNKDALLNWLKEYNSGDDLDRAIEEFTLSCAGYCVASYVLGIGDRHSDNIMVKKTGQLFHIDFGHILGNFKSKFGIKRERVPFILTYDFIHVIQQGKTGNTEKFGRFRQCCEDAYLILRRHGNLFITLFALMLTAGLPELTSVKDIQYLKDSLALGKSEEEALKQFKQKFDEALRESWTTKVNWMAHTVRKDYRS

B1: p110β/ic-Y677A: p110β in a complex with p85β-icSH2-Y677A (protein)
chain: QQDQVVKEDSIEAVGAQLKVYHQQYQDKSREYDQLYEEYTRTSQELQMKRTAIEAFNETIKIFEEQGQTQEKCSKEYLERFRREGNEKEMQRILLNSERLKSRIAEIHESRTKLEQDLRAQASDNREIDKRMNSLKPDLMQLRKIRDQYLVWLTQKGARQRKINEWLGIKNETEDQYSLMEDEDALPHHEERTWYVGKINRTQAEEMLSGKRDGTFLIRESSQRGCYACSVVVDGDTKHCVIYRTATGFGFAEPANLYGSLKELVLHYQHASLVQHNDALTVTLAHPVRAPGPGPPSAAR
In the case of B1, the “activation by pY2” value (p110β [1]) is reported as “not activated by pY2”, the EC50 (p110β [2]; absence of pY2, read-out: EC50 (enzyme concentration), kinase activity, basal) is reported as 0.11 nM and the EC50 (p110β [2]; with 10 μM PDGFR pY2, read-out: EC50 (enzyme concentration), kinase activity, + pY2) is reported as 0.08 nM. For the same molecule, the “basal activity versus wild-type complex” value (p110β [2]; absence of pY2, ADP formation, Figures 3A, 3B) was “more active than the wild-type p110β/p85β-icSH2”.
